The supplement of paper PMC10724198
± gives the standard deviation of the averaged measurements.

Each sequence was assayed on Saccharomyces cerevisiae (assay: protein stability index of tFT-peptide fusion (C-terminal peptide) (PSI (0-1 scale)); higher = more stable (slower turnover)). Details: genetic background: wild type; temperature: 30 C.
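Note: PSI is a weighted mean of sequencing reads over stability bins, variants kept only with over 10 reads, mCherry proximal and sfGFP distal, peptide attached via GGGS linker.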

In order of falling protein stability index:
1. LRFGLRCPLYHL  0.799 ± 0.11
2. LSFSPSFLPDSP  0.782 ± 0.062
3. LPPPTLASTPPP  0.77 ± 0.045
4. LRSMLRCPSPLS  0.759 ± 0.031
5. LRGLIDVKSSLK  0.758 ± 0.052
6. LPRAPPPPPLLL  0.757 ± 0.0076
7. LSILVGDREGSV  0.753 ± 0.13
8. LPPPVSPLVCLL  0.752 ± 0.047
9. LSPLIHSPRPFA  0.752 ± 0.061
10. LPRRSSRRQYAA  0.751 ± 0.022
11. LSRPPPPLLPSV  0.749 ± 0.03
12. LPTLPLPHRHHL  0.742 ± 0.0072
13. LRARSSKPPYWL  0.737 ± 0.028
14. LSPSMSRLWGSK  0.7365 ± 0.0033
15. LPPPPPPPPSTP  0.734 ± 0.0076
16. LRGKLGNCLGLL  0.733 ± 0.028
17. LSRSSQPLPPPH  0.7306 ± 0.0021
18. LRSGRCFFVARL  0.73 ± 0.068
19. LSPSLPLPNPSP  0.729 ± 0.044
20. LSGSSNRVLFDL  0.728 ± 0.053
21. LPPPPSPESPLS  0.722 ± 0.045
22. LSFAGLPFCPGL  0.722 ± 0.13
23. LPPPRPHLSFVP  0.72 ± 0.012
24. LSLFSLSPSFSR  0.718 ± 0.013
25. LPPSPEPLPPRR  0.717 ± 0.059
26. LQSGALEHLGAS  0.716 ± 0.074
27. LPPPLPPPGPPF  0.715 ± 0.013
28. LRCRLCRFFPFL  0.714 ± 0.044
29. LSLSPLPAPCPP  0.713 ± 0.071
30. LPSTLLLPLASP  0.712 ± 0.018
31. LSPCCFLTSSSF  0.71 ± 0.033
32. LRVGGKRREVMG  0.709 ± 0.055
33. LSPPLRFPPPPP  0.709 ± 0.073
34. LSHAHLSPTSSA  0.708 ± 0.088
35. LPRSASLHVRPH  0.707 ± 0.023
36. LRQRAHRPYFRS  0.706 ± 0.019
37. LRPPSCCPLEIQ  0.705 ± 0.076
38. LSPSSPHLPFPL  0.702 ± 0.038
39. LPPPSPTGTFPP  0.7 ± 0.095
40. LQSPGAFFSVSK  0.7 ± 0.018
41. LSASALEFSSPP  0.699 ± 0.0069
42. LSLFLPFRFFRS  0.699 ± 0.025
43. LPSLLYIFPPLS  0.6975 ± 0.0068
44. LRLFAGTFSGTP  0.698 ± 0.03
45. LSARPFPPLMYS  0.6968 ± 0.0025
46. LPPPPPPPPLLP  0.696 ± 0.0022
47. LSFRPPLHPFAL  0.695 ± 0.01
48. LPWCSTLEIRER  0.694 ± 0.011
49. LQWAAGLRTTSP  0.692 ± 0.071
50. LPPPAAPPPALA  0.691 ± 0.032
51. LPTSTRRGGSHG  0.6911 ± 0.0055
52. LRSPPPPAQPFV  0.69 ± 0.0075
53. LSRGPYRPHVNP  0.69 ± 0.051
54. LPPSPLLLTSPP  0.687 ± 0.016
55. LSPPLPARPAAS  0.687 ± 0.034
56. LPPLPPLILFPL  0.684 ± 0.082
57. LSPHPPITHPTP  0.683 ± 0.034
58. LPSPPPAPTPGP  0.681 ± 0.019
59. LPPPHYPHHTAS  0.679 ± 0.052
60. LRPQKIPASSEA  0.678 ± 0.0077
61. LPSPRPSPSRVP  0.676 ± 0.038
62. LRGVGGAGVFFG  0.675 ± 0.025
63. LRGVSGTLSSSC  0.6733 ± 0.0045
64. LSNGVCSVSFLL  0.672 ± 0.024
65. LSSGCSVKLRAQ  0.67 ± 0.015
66. LPYSPPSLTLPR  0.666 ± 0.086
67. LQPATGPQRVIS  0.665 ± 0.03
68. LRFLVVTGSSCS  0.665 ± 0.052
69. LRTRKKTIDHHN  0.663 ± 0.013
70. LPPPPHRSRPPP  0.66 ± 0.06
71. LPVCAFGWPVKS  0.6566 ± 0.0037
72. LPRPYRPASTCT  0.656 ± 0.016
73. LPSFPRISPPSI  0.656 ± 0.016
74. LRGLVGEYRRLK  0.656 ± 0.057
75. LPVDPPLGGHPT  0.655 ± 0.03
76. LRKSSIQRQKKR  0.653 ± 0.034
77. LQHGKSRCAFRK  0.652 ± 0.026
78. LRPPPPPASVCR  0.646 ± 0.029
79. LRLIPPLTTFDY  0.645 ± 0.098
80. LQTLPAPHTPFP  0.643 ± 0.039
81. LRAWPILPSRVL  0.641 ± 0.014
82. LRLAVVSHSCGA  0.639 ± 0.023
83. LRLTCRPWGLFF  0.6377 ± 0.0051
84. LRGGSRWVSGGY  0.636 ± 0.026
85. LRLPSPLPSPPS  0.6283 ± 0.0034
86. LSLFFSSFLITF  0.628 ± 0.12
87. LPPPSPPPPLSP  0.621 ± 0.01
88. LSALGGVLWWWC  0.616 ± 0.026
89. LRVYIRAAWVGL  0.604 ± 0.016
90. LRPPLPPPCPPP  0.599 ± 0.12
91. LQFSTSMGVLMV  0.591 ± 0.01
92. LSLTIYVSELFR  0.587 ± 0.0084
93. LSLFISPTACLT  0.584 ± 0.01
94. LRGGGGIVVGVV  0.563 ± 0.012
95. LPPLPPRVLFNL  0.5604 ± 0.00084
96. LPPSPPLSPITS  0.55 ± 0.024
97. LSLCYCALTSSN  0.541 ± 0.0097
98. LRLLRPVPPRVF  0.5405 ± 0.0019
99. LSLPFLYCFATL  0.518 ± 0.0056
100. LPRPSALLLRSL  0.5 ± 0.12
101. LSLFLAWSLFFL  0.487 ± 0.083
